{
  "source": "patent US10421803",
  "about": "(dated 2019)",
  "target": "HIV-1 YU2 gp120 (HIV-1, UniProt P35961)",
  "sequence (P35961 32-671)": "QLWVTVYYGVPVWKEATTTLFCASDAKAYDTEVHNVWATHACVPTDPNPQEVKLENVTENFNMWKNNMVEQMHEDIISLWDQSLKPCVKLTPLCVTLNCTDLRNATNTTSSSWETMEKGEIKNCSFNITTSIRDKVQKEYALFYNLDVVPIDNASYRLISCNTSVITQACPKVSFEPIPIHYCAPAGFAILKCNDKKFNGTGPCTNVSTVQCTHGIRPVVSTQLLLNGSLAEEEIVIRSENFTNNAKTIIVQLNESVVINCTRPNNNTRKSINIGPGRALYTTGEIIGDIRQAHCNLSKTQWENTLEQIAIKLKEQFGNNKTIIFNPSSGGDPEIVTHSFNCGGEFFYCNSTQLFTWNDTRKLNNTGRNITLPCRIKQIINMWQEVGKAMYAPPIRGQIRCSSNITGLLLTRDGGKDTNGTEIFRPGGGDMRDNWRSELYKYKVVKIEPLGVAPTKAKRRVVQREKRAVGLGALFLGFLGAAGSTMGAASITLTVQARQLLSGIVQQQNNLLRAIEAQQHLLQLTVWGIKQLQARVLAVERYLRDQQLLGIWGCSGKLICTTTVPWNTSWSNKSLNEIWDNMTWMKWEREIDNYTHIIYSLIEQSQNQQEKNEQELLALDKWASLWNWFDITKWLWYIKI",
  "assay": "SPR, bivalent",
  "data": [
    {"binder": "8ANC195 IgG (antibody, V domains shown) VH: QIHLVQSGTEVKKPGSSVTVSCKAYGVNTFGLYAVNWVRQAPGQSLEYIGQIWRWKSSASHHFRGRVLISAVDLTGSSPPISSLEIKNLTSDDTAVYFCTTTSTYDKWSGLHHDGVMAFSSWGQGTLISVSA VL: DIQMTQSPSTLSASIGDTVRISCRASQSITGNWVAWYQQRPGKAPRLLIYRGAALLGGVPSRFSGSAAGTDFTLTIGNLQAEDFGTFYCQQYDTYPGTFGQGTKVEV", "values": [
      {"measurement": "Kd", "result": 82, "unit": "nM"}
    ]}
  ]
}
